# Experimental data published in publication PMC10130748.
# Residue numbers refer to the chain shown, from its start. Names may count otherwise.
# T1: soluble recombinant integrin αvβ3, P06756;P05106
# T1 chain 1: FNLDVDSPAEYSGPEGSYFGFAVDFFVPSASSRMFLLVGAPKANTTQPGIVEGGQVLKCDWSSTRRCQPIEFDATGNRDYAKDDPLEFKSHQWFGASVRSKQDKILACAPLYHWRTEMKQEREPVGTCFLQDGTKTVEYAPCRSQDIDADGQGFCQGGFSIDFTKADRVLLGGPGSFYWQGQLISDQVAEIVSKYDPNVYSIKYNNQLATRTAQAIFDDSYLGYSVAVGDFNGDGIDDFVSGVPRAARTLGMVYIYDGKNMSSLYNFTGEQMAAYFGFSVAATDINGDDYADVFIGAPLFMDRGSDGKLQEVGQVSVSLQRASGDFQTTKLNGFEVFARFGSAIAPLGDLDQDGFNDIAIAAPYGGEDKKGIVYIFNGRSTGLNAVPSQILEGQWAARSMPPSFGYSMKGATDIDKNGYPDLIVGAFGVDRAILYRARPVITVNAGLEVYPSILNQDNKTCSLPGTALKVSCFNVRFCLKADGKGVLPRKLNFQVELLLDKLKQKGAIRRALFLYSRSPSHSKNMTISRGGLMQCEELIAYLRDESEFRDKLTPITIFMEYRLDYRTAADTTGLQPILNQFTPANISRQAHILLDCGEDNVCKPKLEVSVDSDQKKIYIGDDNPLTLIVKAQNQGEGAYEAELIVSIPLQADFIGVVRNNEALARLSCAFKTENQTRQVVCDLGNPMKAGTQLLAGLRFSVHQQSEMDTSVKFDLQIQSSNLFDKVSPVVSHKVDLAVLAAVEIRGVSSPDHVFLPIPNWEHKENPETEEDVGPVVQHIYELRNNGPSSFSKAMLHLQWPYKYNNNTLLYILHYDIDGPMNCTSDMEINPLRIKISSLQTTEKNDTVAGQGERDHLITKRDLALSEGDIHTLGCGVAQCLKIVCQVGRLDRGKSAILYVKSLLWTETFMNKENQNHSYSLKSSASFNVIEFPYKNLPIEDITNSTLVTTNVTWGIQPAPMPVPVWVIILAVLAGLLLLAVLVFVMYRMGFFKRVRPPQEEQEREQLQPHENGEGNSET
# T1 chain 2: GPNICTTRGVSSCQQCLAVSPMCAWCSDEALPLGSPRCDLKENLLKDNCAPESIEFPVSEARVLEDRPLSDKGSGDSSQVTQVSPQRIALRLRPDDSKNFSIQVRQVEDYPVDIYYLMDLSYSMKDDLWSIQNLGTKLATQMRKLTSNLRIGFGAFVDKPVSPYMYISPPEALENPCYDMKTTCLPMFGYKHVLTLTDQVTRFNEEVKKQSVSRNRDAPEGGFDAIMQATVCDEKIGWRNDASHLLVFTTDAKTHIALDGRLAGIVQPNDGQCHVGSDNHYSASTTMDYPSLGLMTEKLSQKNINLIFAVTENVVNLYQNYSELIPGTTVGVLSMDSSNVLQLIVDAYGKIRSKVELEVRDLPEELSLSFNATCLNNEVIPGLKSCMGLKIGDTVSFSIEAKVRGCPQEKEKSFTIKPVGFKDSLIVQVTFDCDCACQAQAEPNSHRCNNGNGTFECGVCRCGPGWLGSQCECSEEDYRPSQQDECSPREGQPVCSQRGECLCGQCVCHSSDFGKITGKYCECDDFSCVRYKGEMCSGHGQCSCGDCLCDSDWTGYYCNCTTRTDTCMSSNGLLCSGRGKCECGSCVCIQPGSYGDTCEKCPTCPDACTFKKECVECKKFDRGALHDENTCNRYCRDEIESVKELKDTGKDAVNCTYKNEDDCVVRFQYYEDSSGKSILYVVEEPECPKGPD
# B1: CD62P (P-selectin) lectin domain (residues 1–117), wild type R54E; K55E (protein)
# chain: WTYHYSTKAYSWNISRKYCQNRYTDLVAIQNKNEIDYLNKVLPYYSSYYWIGIEENNKTWTWVGTKKALTNEAENWADNEPNNKRNNEDCVEIYIKSPSAPGKWNDEHCLKKKHALC
# B2: CD62P (P-selectin) lectin domain (residues 1–117), wild type E88D (protein)
# chain: B1 chain with E54R, E55K, E88D
# B3: CD62P (P-selectin) lectin domain (residues 1–117), wild type K66E; K67E (protein)
# chain: B1 chain with E54R, E55K, K66E, K67E
# B4: CD62P (P-selectin) lectin domain (residues 1–117), wild type R16E; K17E (protein)
# chain: B1 chain with R16E, K17E, E54R, E55K
# B5: CD62P (P-selectin) lectin domain (residues 1–117), wild type K84E; R85E (protein)
# chain: B1 chain with E54R, E55K, K84E, R85E
# B6: CD62P (P-selectin) lectin domain (residues 1–117), wild type K58E (protein)
# chain: B1 chain with E54R, E55K, K58E
# Columns and labels:
# [1] = target: soluble recombinant integrin αIIbβ3, P08514;P05106; assay: ELISA-type binding assay (OD450); details: chain shown with the change; CD62P 50 µg/ml; 1 mM Mn2+; parent: est. 0.54; read off a plot
# [2] = target: T1, soluble recombinant integrin αvβ3, …; assay: ELISA-type binding assay (OD450); details: chain shown with the change; CD62P 50 µg/ml; 1 mM Mn2+; parent: est. 0.55; read off a plot
Binder,response [1] [OD450],response [2] [OD450]
B1,1.3,1.2
B2,0.76,0.8
B3,0.3,0.35
B4,0.12,0.14
B5,0.19,0.24
B6,0.27,0.31
